# Measured values reported in patent publication US20090099029.
# T1: Bovine, dephosphorylated, Myelin Basic Protein (MBP), P02687
# T1 chain: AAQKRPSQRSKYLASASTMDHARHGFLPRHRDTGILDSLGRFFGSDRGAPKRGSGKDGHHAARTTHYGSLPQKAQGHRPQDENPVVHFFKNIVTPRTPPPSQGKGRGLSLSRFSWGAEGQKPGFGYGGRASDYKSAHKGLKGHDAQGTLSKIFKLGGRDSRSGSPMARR
# Target: T1, Bovine, dephosphorylated, Myelin Basic …
row,Protein,MBP Kinase Activity
1,SRPK2 (protein) MSSRKVLAIQARKRRPKREKHPKKPEPQQKAPLVPPPPPPPPPPPPPLPDPTPPEPEEEILGSDDEEQEDPADYCKGGYHPVKIGDLFNGRYHVIRKLGWGHFSTVWLCWDMQGKRFVAMKVVKSAQHYTETALDEIKLLKCVRESDPSDPNKDMVVQLIDDFKISGMNGIHVCMVFEVLGHHLLKWIIKSNYQGLPVRCVKSIIRQVLQGLDYLHSKCKIIHTDIKPENILMCVDDAYVRRMAAEATEWQKAGAPPPSGSAVSTAPQQKPIGKISKNKKKKLKKKQKRQAELLEKRLQEIEELEREAERKIIEENITSAAPSNDQDGEYCPEVKLKTTGLEEAAEAETAKDNGEAEDQEEKEDAEKENIEKDEDDVDQELANIDPTWIESPKTNGHIENGPFSLEQQLDDEDDDEEDCPNPEEYNLDEPNAESDYTYSSSYEQFNGELPNGRHKIPESQFPEFSTSLFSGSLEPVACGSVLSEGSPLTEQEESSPSHDRSRTVSASSTGDLPKAKTRAADLLVNPLDPRNADKIRVKIADLGNACWVHKHFTEDIQTRQYRSIEVLIGAGYSTPADIWSTACMAFELATGDYLFEPHSGEDYSRDEDHIAHIIELLGSIPRHFALSGKYSREFFNRRGELRHITKLKPWSLFDVLVEKYGWPHEDAAQFTDFLIPMLEMVPEKRASAGECLRHPWLNS,Strong
2,STK17A(DRAK1) (protein) MIPLEKPGSGGSSPGATSGSGRAGRGLSGPCRPPPPPQARGLLTEIRAVVRTEPFQDGYSLCPGRELGRGKFAVVRKCIKKDSGKEFAAKFMRKRRKGQDCRMEIIHEIAVLELAQDNPWVINLHEVYETASEMILVLEYAAGGEIFDQCVADREEAFKEKDVQRLMRQILEGVHFLHTRDVVHLDLKPQNILLTSESPLGDIKIVDFGLSRILKNSEELREIMGTPEYVAPEILSYDPISMATDMWSIGVLTYVMLTGISPFLGNDKQETFLNISQMNLSYSEEEFDVLSESAVDFIRTLLVKKPEDRATAEECLKHPWLTQSSIQEPSFRMEKALEEANALQEGHSVPEINSDTDKSETKESIVTEELIVVTSYTLGQCRQSEKEKMEQKAISKRFKFEEPLLQEIPGEFIY,Negative
3,SLK (protein) MSFFNFRKIFKLGSEKKKKQYEHVKRDLNPEDFWEIIGELGDGAFGKVYKAQNKETSVLAAAKVIDTKSEEELEDYMVEIDILASCDHPNIVKLLDAFYYENNLWILIEFCAGGAVDAVMLELERPLTESQIQVVCKQTLDALNYLHDNKIIHRDLKAGNILFTLDGDIKLADFGVSAKNTRTIQRRDSFIGTPYWMAPEVVMCETSKDRPYDYKADVWSLGITLIEMAEIEPPHHELNPMRVLLKIAKSEPPTLAQPSRWSSNFKDFLKKCLEKNVDARWTTSQLLQHPFVTVDSNKPIRELIAEAKAEVTEEVEDGKEEDEEEETENSLPIPASKRASSDLSIASSEEDKLSQNACILESVSEKTERSNSEDKLNSKILNEKPTTDEPEKAVEDINEHITDAQLEAMTELHDRTAVIKENEREKRPKLENLPDTEDQETVDINSVSEGKENNIMITLETNIEHNLKSEEEKDQEKQQMFENKLIKSEEIKDTILQTVDLVSQETGEKEANIQAVDSEVGLTKEDTQEKLGEDDKTQKDVISNTSDVIGTCEAADVAQKVDEDSAEDTQSNDGKEVVEVGQKLINKPMVGPEAGGTKEVPIKEIVEMNEIEEGKNKEQAINSSENIMDINEEPGTTEGEEITESSSTEEMEVRSVVADTDQKALGSEVQDASKVTTQIDKEKKEIPVSIKKEPEVTVVSQPTEPQPVLIPSININSDSGENKEEIGSLSKTETILPPESENPKENDNDSGTGSTADTSSIDLNLSISSFLSKTKDSGSISLQETRRQKKTLKKTRKFIVDGVEVSVTTSKIVTDSDSKTEELRFLRRQELRELRFLQKEEQRAQQQLNSKLQQQREQIFRRFEQEMMSKKRQYDQEIENLEKQQKQTIERLEQEHTNRLRDEAKRIKGEQEKELSKFQNMLKNRKKEVINEVEKAPKELRKELMKRRKEELAQSQHAQEQEFVQKQQQELDGSLKKIIQQQKAELANIERECLNNKQQLMRAREAAIWELEERHLQEKHQLLKQQLKDQYFMQRHQLLKRHEKETEQMQRYNQRLIEELKNRQTQERARLPKIQRSEAKTRMAMFKKSLRINSTATPDQDRDKIKQFAAQEEKRQKNERMAQHQKHENQMRDLQLQCEANVRELHQLQNEKCHLLVEHETQKLKELDEEHSQELKEWREKLRPRKKTLEEEFARKLQEQEVFFKMTGESECLNPSTQSRISKFYPIPSLHSTGS,Weak
